The results in this text go back to paper PMC2909130 (Biochemistry, 2010).

The data set deals with the molecule itself. Nature of the data set: crystal structure.

B1: ArsD109/C12A/C13A/C39S (domain or fragment, Escherichia coli (plasmid R773), UniProt P46003 1-109, looked up)
chain: MKTLMVFDPAMAASTGVCGTDVDQALVDFSTDVQWLKQSGVQIERFNLAQQPMSFVQNEKVKAFIEASGAEGLPLLLLDGETVMAGRYPKRAELARWFGIPLDKVGLAP
Take B1: the binding result was “binds”.

B2: ArsD109 (ArsD arsenic metallochaperone of plasmid R773, residues 1-109, wild type) (domain or fragment, Escherichia coli (plasmid R773), UniProt P46003 1-109, looked up)
chain: MKTLMVFDPAMCCSTGVCGTDVDQALVDFSTDVQWLKQCGVQIERFNLAQQPMSFVQNEKVKAFIEASGAEGLPLLLLDGETVMAGRYPKRAELARWFGIPLDKVGLAP
B2: the binding result is “binds”.
